Reference: publication doi:10.1101/2022.03.14.484276

Biological target: BsaXI S subunit (specificity subunit), WT TRD1-CR1-TRD2-CR2 (Bacillus stearothermophilus 25B (Geobacillus sp. 25B))
Assay: co-purification through chromatography columns

stoichiometry N: 2 RM per S
Substance: BsaXI RM subunit (restriction-modification fusion subunit) (enzyme)
